Like-named read-outs stand apart in the source and are kept apart here. Square brackets hold non-standard residues; d marks the D form. Side chains are listed from the residue outwards. Abu = CC[C@H](N)C(=O)O; Cy5.5 = Cyanine-5.5; Ahx = NCCCCCC(=O)O; βAla = NCCC(=O)O
How the values were obtained:
[1] = molecular target: integrin α5β1 (soluble integrin) (UniProt P08648); experiment: solid-phase binding assay, internal standard; coated fibronectin, soluble α5β1
[2] = test system: human oral squamous cell carcinoma (OSCC) cell line HN (high integrin αvβ6); experiment: Cell binding / fluorescence bioimaging of Cy5.5 conjugate on HN cells; format: cell-based
Text: The human oral squamous cell carcinoma (OSCC) cell line HN were purchased from the German Collection of Microorganisms and Cell Cultures, Braunschweig, Germany (DSMZ no. ACC 417). HN cells derived from a cervical lymph node metastasis of a highly aggressive and invasive OSCC of the soft palate.^[9] As control cells, we used the human ovarian cancer cell line OVMZ6 with low integrin αvβ6 and high integrin αvβ3 expression.^[10] All cells were cultivated in Dulbecco's Modified Eagle's Medium (DMEM) (Sigma-Aldrich, St. Louis, Mo., USA), supplemented with 10% (v/v) fetal calf serum (FCS) (Gibco, LifeTechnologies™, Carlsbad, Calif., USA).
HN and OVMZ6 cells were cultivated for 24 h on fibronectin-coated microchamber slides at a density of 25×10^3/well, thereafter fixed in 2% (w/v) PFA for 15 min at r.t. and washed in PBS. The Cy5.5-conjugated compound 18-Cy5.5, dissolved in PBS, 5% (v/v) dimethyl sulfoxide (DMSO), was applied at a final concentration of […] for 1 h at r.t., followed by 3 washes in PBS. […] As control peptide served the non-binding cycl(R^betaADfK) labelled via lysine side-chain NH2 group with Cy5.5 fluorescent dye. After the incubation period, cells were washed 6 times in PBS and slides mounted. Fluorescence signal intensity was detected by the microscope Zeiss LSM 700 (Zeiss) as described above.

[3] = molecular target: αvβ6 (Homo sapiens, UniProt P06756+P18564); conditions: from WO 01/05810; cited from earlier work
[4] = molecular target: T1, integrin αvβ8 (soluble integrin) (UniProt P06756 31-992; P26012 43-684); experiment: solid-phase binding assay, competition; coated LAP, soluble αvβ8
T1 construct: Only 'soluble integrins' is said
T1 sequence (P06756 31-992, chain 1 of 2): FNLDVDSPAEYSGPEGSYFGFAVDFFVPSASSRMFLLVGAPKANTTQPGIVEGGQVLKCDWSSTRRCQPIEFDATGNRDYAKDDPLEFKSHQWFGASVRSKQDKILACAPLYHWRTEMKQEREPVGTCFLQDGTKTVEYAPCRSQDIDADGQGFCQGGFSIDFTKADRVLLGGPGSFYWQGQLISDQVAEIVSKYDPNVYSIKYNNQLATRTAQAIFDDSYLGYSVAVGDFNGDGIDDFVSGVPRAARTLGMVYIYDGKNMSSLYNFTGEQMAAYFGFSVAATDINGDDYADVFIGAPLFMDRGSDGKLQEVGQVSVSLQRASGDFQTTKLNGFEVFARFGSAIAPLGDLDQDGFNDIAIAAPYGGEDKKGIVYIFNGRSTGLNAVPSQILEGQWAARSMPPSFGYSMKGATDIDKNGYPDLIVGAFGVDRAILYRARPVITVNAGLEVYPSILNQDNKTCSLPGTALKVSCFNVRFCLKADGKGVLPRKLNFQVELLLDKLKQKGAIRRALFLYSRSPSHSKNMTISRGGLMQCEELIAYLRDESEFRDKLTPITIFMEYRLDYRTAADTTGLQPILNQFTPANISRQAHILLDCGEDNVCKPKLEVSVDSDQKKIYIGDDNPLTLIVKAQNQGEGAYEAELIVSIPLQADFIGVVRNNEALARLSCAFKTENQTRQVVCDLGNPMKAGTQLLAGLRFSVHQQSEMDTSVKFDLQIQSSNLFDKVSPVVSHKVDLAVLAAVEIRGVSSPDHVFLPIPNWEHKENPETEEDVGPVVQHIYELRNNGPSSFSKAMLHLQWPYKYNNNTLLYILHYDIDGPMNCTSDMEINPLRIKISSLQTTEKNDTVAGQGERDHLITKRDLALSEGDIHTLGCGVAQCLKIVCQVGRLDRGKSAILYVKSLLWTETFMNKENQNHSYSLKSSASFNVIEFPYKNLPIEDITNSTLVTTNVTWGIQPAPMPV
T1 sequence (P26012 43-684, chain 2 of 2): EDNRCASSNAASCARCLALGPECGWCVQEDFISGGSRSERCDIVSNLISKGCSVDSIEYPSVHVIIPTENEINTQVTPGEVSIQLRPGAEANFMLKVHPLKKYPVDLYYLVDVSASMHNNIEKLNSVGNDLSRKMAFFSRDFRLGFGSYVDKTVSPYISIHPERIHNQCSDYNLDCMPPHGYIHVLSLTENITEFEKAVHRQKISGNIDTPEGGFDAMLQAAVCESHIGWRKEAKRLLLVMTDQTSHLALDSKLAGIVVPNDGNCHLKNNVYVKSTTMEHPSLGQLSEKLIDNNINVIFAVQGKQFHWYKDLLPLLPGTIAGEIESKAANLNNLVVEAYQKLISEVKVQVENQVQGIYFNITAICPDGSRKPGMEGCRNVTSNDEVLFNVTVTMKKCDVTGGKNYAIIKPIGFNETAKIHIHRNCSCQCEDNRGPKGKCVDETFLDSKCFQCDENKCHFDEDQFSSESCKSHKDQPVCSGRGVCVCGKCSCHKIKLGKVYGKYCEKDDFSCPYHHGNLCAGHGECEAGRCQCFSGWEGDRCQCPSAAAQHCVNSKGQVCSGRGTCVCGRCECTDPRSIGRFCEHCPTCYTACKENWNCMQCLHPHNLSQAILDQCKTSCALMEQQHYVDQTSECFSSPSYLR

[5] = molecular target: T2, integrin αvβ3 (soluble integrin) (UniProt P06756 31-992; P05106 27-718); experiment: solid-phase binding assay, competition; coated vitronectin, soluble αvβ3
T2 construct: Only 'soluble integrins' is said
T2 sequence (P06756 31-992, chain 1 of 2): as the sequence (P06756 31-992, chain 1 of 2) above
T2 sequence (P05106 27-718, chain 2 of 2): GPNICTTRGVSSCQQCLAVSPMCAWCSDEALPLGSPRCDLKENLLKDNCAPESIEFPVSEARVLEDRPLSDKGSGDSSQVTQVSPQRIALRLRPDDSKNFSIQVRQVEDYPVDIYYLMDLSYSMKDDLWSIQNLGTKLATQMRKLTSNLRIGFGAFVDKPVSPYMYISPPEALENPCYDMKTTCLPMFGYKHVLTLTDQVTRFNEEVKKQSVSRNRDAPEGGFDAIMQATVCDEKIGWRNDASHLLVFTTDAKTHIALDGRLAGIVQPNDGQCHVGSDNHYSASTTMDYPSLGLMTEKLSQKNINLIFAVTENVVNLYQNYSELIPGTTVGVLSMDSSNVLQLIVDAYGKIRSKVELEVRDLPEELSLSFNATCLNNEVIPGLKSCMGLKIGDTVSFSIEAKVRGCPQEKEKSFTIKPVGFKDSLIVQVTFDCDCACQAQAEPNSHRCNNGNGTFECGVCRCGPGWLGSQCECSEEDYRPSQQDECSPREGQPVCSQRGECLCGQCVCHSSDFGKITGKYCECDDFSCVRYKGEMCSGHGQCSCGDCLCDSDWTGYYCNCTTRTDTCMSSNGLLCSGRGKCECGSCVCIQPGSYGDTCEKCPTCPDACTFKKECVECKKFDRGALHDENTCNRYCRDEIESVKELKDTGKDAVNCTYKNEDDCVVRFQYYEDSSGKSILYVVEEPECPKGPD

[6] = molecular target: T3, integrin α5β1 (soluble integrin) (UniProt P08648 42-995; P05556 21-728); experiment: solid-phase binding assay, competition; coated fibronectin, soluble α5β1
T3 construct: Only 'soluble integrins' is said
T3 sequence (P08648 42-995, chain 1 of 2): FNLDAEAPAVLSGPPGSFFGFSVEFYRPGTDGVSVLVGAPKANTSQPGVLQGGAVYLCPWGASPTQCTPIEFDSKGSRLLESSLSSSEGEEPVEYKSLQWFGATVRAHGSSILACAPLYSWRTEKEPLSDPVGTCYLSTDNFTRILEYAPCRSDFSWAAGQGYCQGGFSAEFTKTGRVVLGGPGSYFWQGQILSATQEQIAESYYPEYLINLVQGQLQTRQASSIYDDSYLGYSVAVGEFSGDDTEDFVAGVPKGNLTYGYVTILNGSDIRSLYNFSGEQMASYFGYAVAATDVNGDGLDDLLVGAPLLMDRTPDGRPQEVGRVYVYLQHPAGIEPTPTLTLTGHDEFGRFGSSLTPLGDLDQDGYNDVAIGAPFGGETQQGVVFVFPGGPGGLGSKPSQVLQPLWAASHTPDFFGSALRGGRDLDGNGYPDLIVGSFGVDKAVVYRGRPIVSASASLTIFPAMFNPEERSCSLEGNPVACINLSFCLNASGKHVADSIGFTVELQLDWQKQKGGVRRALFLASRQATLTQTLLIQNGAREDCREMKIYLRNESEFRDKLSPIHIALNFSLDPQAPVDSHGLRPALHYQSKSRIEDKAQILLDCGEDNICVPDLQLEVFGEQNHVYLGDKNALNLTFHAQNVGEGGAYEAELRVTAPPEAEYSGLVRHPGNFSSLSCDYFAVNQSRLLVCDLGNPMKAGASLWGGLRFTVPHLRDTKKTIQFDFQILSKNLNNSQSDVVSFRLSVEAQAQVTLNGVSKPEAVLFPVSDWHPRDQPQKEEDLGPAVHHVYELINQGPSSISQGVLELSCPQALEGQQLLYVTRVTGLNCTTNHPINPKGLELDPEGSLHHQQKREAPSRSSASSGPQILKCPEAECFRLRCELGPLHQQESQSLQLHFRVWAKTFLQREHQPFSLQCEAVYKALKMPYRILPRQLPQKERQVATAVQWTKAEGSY
T3 sequence (P05556 21-728, chain 2 of 2): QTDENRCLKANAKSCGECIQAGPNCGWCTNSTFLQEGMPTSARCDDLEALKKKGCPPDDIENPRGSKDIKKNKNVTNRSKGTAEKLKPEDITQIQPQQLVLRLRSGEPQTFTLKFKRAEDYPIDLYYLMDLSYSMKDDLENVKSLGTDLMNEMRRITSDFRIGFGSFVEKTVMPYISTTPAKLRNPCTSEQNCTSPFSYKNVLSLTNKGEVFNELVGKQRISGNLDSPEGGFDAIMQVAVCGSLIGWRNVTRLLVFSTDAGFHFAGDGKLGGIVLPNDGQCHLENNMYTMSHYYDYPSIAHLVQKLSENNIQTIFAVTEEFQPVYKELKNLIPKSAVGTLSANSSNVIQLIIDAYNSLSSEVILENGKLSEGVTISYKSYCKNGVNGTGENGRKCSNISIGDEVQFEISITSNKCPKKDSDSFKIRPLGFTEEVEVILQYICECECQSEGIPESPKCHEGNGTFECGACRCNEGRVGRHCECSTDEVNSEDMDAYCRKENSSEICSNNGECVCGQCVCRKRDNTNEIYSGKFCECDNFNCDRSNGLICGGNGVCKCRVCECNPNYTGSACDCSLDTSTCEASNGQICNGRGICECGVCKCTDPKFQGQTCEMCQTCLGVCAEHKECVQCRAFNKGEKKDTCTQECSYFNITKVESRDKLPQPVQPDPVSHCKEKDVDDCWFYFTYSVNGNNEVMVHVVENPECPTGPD

[7] = molecular target: T2, integrin αvβ3 (soluble integrin); experiment: solid-phase binding assay, competition; coated vitronectin, soluble αvβ3; remark: listed apart in the source
[8] = molecular target: T4, integrin αvβ6 (soluble integrin) (UniProt P06756 31-992; P18564 22-707); experiment: solid-phase binding assay, competition; coated LAP, soluble αvβ6
T4 construct: Only 'soluble integrins' is said
T4 sequence (P06756 31-992, chain 1 of 2): as the sequence (P06756 31-992, chain 1 of 2) above
T4 sequence (P18564 22-707, chain 2 of 2): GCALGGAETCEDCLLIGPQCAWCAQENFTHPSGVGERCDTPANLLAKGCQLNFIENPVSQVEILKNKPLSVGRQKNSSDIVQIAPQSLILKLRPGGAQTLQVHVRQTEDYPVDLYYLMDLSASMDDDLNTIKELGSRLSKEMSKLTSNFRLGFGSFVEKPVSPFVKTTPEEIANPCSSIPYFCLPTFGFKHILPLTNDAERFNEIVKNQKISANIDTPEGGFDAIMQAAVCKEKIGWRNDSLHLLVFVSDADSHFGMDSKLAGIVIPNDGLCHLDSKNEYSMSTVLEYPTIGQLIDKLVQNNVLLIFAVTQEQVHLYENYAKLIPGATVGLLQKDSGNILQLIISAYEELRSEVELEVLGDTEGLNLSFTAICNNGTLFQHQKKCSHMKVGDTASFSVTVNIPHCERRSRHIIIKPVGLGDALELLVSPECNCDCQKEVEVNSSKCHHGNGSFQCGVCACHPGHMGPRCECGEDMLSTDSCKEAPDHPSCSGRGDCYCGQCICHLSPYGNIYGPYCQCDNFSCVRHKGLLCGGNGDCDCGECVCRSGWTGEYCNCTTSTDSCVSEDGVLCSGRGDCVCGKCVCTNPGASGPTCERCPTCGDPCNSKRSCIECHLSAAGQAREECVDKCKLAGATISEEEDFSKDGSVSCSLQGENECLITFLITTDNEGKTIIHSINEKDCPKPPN

[9] = molecular target: T2, integrin αvβ3 (soluble integrin); experiment: ratio of IC50s αvβ6:αvβ3, printed the other way round (6.1 for αvβ6 to 1 for αvβ3)
[10] = molecular target: T4, integrin αvβ6 (soluble integrin); experiment: solid-phase binding assay, internal standard; coated LAP, soluble αvβ6
[11] = molecular target: T1, integrin αvβ8 (soluble integrin); experiment: solid-phase binding assay, internal standard; coated LAP, soluble αvβ8

integrin α5β1 (soluble integrin) (UniProt P08648), sequence (P08648 42-995, chain 1 of 2): as the sequence (P08648 42-995, chain 1 of 2) above
integrin α5β1 (soluble integrin) (UniProt P08648), sequence (P05556 21-728, chain 2 of 2, further chain): as the sequence (P05556 21-728, chain 2 of 2) above

Cilengitide, c(-RGDf(NMe)V-) (peptide)
IC50 [1]: 1 to 8 nM

cycl(R^betaADfK)-ahx-Cy5.5 (cyclo(R[βAla]D[dF]K([Ahx-Cy5.5]))) [reference compound]
fluorescence signal intensity on cells ([2]; fixed HN cells, conjugate 10 M, 1 h at r.t.): did not result in fluorescence signal intensity

CC(C)C[C@@H]1NC(=O)[C@H](CC(=O)O)NC(=O)CNC(=O)[C@H](CCCNC(=N)N)NC(=O)[C@H](Cc2ccccc2)NC(=O)[C@H](CCCCN)N(C)C(=O)[C@H]2CCCN2C(=O)[C@H](Cc2ccccc2)NC(=O)[C@H](C)NC1=O [Compound 18, F R G D L A F p (NMe)K]
binding competition: fluorescence signal intensity of 18-Cy5.5 after pre-incubation ([2]; 10-fold molar excess of unlabeled analogue for 1 h at r.t. prior to 18-Cy5.5): strong reduction in fluorescence signal intensity

cyclo(RTDLdALR-Abu-Abu) (cyclo(RTDL[dD]ALR[Abu][Abu]); SMILES CC[C@@H]1NC(=O)[C@H](CCCNC(=N)N)NC(=O)[C@H](CC(C)C)NC(=O)[C@H](C)NC(=O)[C@@H](CC(=O)O)NC(=O)[C@H](CC(C)C)NC(=O)[C@H](CC(=O)O)NC(=O)[C@H]([C@@H](C)O)NC(=O)[C@H](CCCNC(=N)N)NC(=O)[C@H](CC)NC1=O)
IC50 [3]: ~1 nM

B1: Compound 1, cyclic peptide A R G D L A A L p P (peptide)
peptide: cyclo(ARGDLAAL[dP]P)
notes: Comparative compound (*); also called Cpd
IC50 [4]: 115 nM | IC50 [5]: 76.7 nM | IC50 [6]: 454 nM | IC50 [7]: 76.7 nM

B2: Compound 8, cyclic peptide A R G D L D L p P (peptide)
peptide: cyclo(ARGDLDL[dP]P)
SMILES: CC(C)C[C@@H]1NC(=O)[C@H](CC(=O)O)NC(=O)CNC(=O)[C@H](CCCNC(=N)N)NC(=O)[C@H](C)NC(=O)[C@@H]2CCCN2C(=O)[C@H]2CCCN2C(=O)[C@H](CC(C)C)NC(=O)[C@H](CC(=O)O)NC1=O
notes: Comparative compound (*)
IC50 [8]: 14.7 nM | IC50 [5]: 2.4 nM | Ratio [9]: 6.1

B3: Compound 10, cyclic peptide A R G D L A F p P (peptide)
peptide: cyclo(ARGDLAF[dP]P)
SMILES: CC(C)C[C@@H]1NC(=O)[C@H](CC(=O)O)NC(=O)CNC(=O)[C@H](CCCNC(=N)N)NC(=O)[C@H](C)NC(=O)[C@@H]2CCCN2C(=O)[C@H]2CCCN2C(=O)[C@H](Cc2ccccc2)NC(=O)[C@H](C)NC1=O
notes: also called Cpd; 10
IC50 [4]: 10.4 nM | IC50 [5]: 104 nM | IC50 [6]: 38.4 nM | IC50 [7]: 104 nM

B4: Compound 11, cyclic peptide A R G D L A K p P (peptide)
peptide: cyclo(ARGDLAK[dP]P)
SMILES: CC(C)C[C@@H]1NC(=O)[C@H](CC(=O)O)NC(=O)CNC(=O)[C@H](CCCNC(=N)N)NC(=O)[C@H](C)NC(=O)[C@@H]2CCCN2C(=O)[C@H]2CCCN2C(=O)[C@H](CCCCN)NC(=O)[C@H](C)NC1=O
notes: also called Cpd; 11
IC50 [4]: 49.3 nM | IC50 [5]: 302 nM | IC50 [6]: 831 nM | IC50 [7]: 302 nM

B5: linear peptide RTDLDSLRT (peptide)
peptide: RTDLDSLRT
notes: also called control peptide (plasma stability)
IC50 [10]: 6 to 33 nM | IC50 [11]: 8 to 100 nM
